This note sets out measurements from US20250134889.

For the series, the target named is purified, recombinant human FMRP protein.

B1: inositol-requiring enzyme-1 (IRE1), wild type, expressed from plasmid in HEK293T cells (protein)
chain: IFGSTSTVTLPETLLFVSTLDGSLHAVSKRTGSIKWTLKEDPVLQVPTHVEEPAFLPDPNDGSLYTLGSKNNEGLTKLPFTIPELVQASPCRSSDGILYMGKKQDIWYVIDLLTGEKQQTLSSAFADSLCPSTSLLYLGRTEYTITMYDTKTRELRWNATYFDYAASLPEDDVDYKMSHFVSNGDGLVVTVDSESGDVLWIQNYASPVVAFYVWQREGLRKVMHINVAVETLRYLTFMSGEVGRITKWKYPFPKETEAKSKLTPTLYVGKYSTSLYASPSMVHEGVAVVPRGSTLPLLEGPQTDGVTIGDKGECVITPSTDVKFDPGLKSKNKLNYLRNYWLLIGHHETPLSASTKMLERFPNNLPKHRENVIPADSEKKSFEEVINLVDQTSENAPTTVSRDVEEKPAHAPARPEAPVDSMLKDMATIILSTFLLIGWVAFIITYPLSMHQQQQLQHQQFQKELEKIQLLQQQQQQLPFHPPGDTAQDGELLDTSGPYSESSGTSSPSTSPRASNHSLCSGSSASKAGSSPSLEQDDGDEETSVVIVGKISFCPKDVLGHGAEGTIVYRGMFDNRDVAVKRILPECFSFADREVQLLRESDEHPNVIRYFCTEKDRQFQYIAIELCAATLQEYVEQKDFAHLGLEPITLLQQTTSGLAHLHSLNIVHRDLKPHNILISMPNAHGKIKAMISDFGLCKKLAVGRHSFSRRSGVPGTEGWIAPEMLSEDCKENPTYTVDIFSAGCVFYYVISEGSHPFGKSLQRQANILLGACSLDCLHPEKHEDVIARELIEKMIAMDPQKRPSAKHVLKHPFFWSLEKQLQFFQDVSDRIEKESLDGPIVKQLERGGRAVVKMDWRENITVPLQTDLRKFRTYKGGSVRDLLRAMRNKKHHYRELPAEVRETLGSLPDDFVCYFTSRFPHLLAHTYRAMELCSHERLFQPYYFHEPPEPQPPVTPDAL
For B1, the “thio-phosphorylation in an in vitro kinase reaction (ATP-γ-S; western blot with anti-thiophosphate ester antibody)” value is “In the reaction containing IRE1-WT, both proteins were thio-phosphorylated”.

B2: kinase dead (KD) mutant IRE1 (K599A), expressed from plasmid in HEK293T cells (protein)
chain: IFGSTSTVTLPETLLFVSTLDGSLHAVSKRTGSIKWTLKEDPVLQVPTHVEEPAFLPDPNDGSLYTLGSKNNEGLTKLPFTIPELVQASPCRSSDGILYMGKKQDIWYVIDLLTGEKQQTLSSAFADSLCPSTSLLYLGRTEYTITMYDTKTRELRWNATYFDYAASLPEDDVDYKMSHFVSNGDGLVVTVDSESGDVLWIQNYASPVVAFYVWQREGLRKVMHINVAVETLRYLTFMSGEVGRITKWKYPFPKETEAKSKLTPTLYVGKYSTSLYASPSMVHEGVAVVPRGSTLPLLEGPQTDGVTIGDKGECVITPSTDVKFDPGLKSKNKLNYLRNYWLLIGHHETPLSASTKMLERFPNNLPKHRENVIPADSEKKSFEEVINLVDQTSENAPTTVSRDVEEKPAHAPARPEAPVDSMLKDMATIILSTFLLIGWVAFIITYPLSMHQQQQLQHQQFQKELEKIQLLQQQQQQLPFHPPGDTAQDGELLDTSGPYSESSGTSSPSTSPRASNHSLCSGSSASKAGSSPSLEQDDGDEETSVVIVGKISFCPKDVLGHGAEGTIVYRGMFDNRDVAVARILPECFSFADREVQLLRESDEHPNVIRYFCTEKDRQFQYIAIELCAATLQEYVEQKDFAHLGLEPITLLQQTTSGLAHLHSLNIVHRDLKPHNILISMPNAHGKIKAMISDFGLCKKLAVGRHSFSRRSGVPGTEGWIAPEMLSEDCKENPTYTVDIFSAGCVFYYVISEGSHPFGKSLQRQANILLGACSLDCLHPEKHEDVIARELIEKMIAMDPQKRPSAKHVLKHPFFWSLEKQLQFFQDVSDRIEKESLDGPIVKQLERGGRAVVKMDWRENITVPLQTDLRKFRTYKGGSVRDLLRAMRNKKHHYRELPAEVRETLGSLPDDFVCYFTSRFPHLLAHTYRAMELCSHERLFQPYYFHEPPEPQPPVTPDAL
For B2, the “thio-phosphorylation in an in vitro kinase reaction (ATP-γ-S; western blot with anti-thiophosphate ester antibody)” value is given as “but not in the reaction containing the IRE1-KD mutant”.

B3: purified, recombinant human IRE1-kinase/RNase domains (amino acids 468-977) (protein)
chain: MHQQQQLQHQQFQKELEKIQLLQQQQQQLPFHPPGDTAQDGELLDTSGPYSESSGTSSPSTSPRASNHSLCSGSSASKAGSSPSLEQDDGDEETSVVIVGKISFCPKDVLGHGAEGTIVYRGMFDNRDVAVKRILPECFSFADREVQLLRESDEHPNVIRYFCTEKDRQFQYIAIELCAATLQEYVEQKDFAHLGLEPITLLQQTTSGLAHLHSLNIVHRDLKPHNILISMPNAHGKIKAMISDFGLCKKLAVGRHSFSRRSGVPGTEGWIAPEMLSEDCKENPTYTVDIFSAGCVFYYVISEGSHPFGKSLQRQANILLGACSLDCLHPEKHEDVIARELIEKMIAMDPQKRPSAKHVLKHPFFWSLEKQLQFFQDVSDRIEKESLDGPIVKQLERGGRAVVKMDWRENITVPLQTDLRKFRTYKGGSVRDLLRAMRNKKHHYRELPAEVRETLGSLPDDFVCYFTSRFPHLLAHTYRAMELCSHERLFQPYYFHEPPEPQPPVTPDAL
Turning to B3, the “IRE1-induced phosphorylation sites on FMRP (LC-MS/MS)” value is “eight IRE1-induced phosphorylation sites on FMRP at serine (S362, S494, S497, S500, S504) and threonine (T502, T592, T594)”; the “phosphorylation in an in vitro kinase reaction of purified proteins (western blot for ThioP; LC-MS/MS)” value is “Both IRE1 and FMRP were phosphorylated in this reaction in an AMG-18-sensitive manner”.
